Values belong to the binder of their own block, whether it stands above or below them. Positions of bridges follow the written chain, without caps; N, C: chain ends. Non-standard residues stand in square brackets, D forms with d. dPhe(4-CN) = N#Cc1ccc(C[C@@H](N)C(=O)O)cc1; dPhe(3-Me) = Cc1cccc(C[C@@H](N)C(=O)O)c1; dPhe(2-Cl) = N[C@H](Cc1ccccc1Cl)C(=O)O; dPhe(4-F) = N[C@H](Cc1ccc(F)cc1)C(=O)O; dPhe(2-F) = N[C@H](Cc1ccccc1F)C(=O)O; Orn = NCCC[C@H](N)C(=O)O
What was measured:
[1] = molecular target: T1, human melanocortin-4 receptor (human, UniProt P32245 1-332); experiment: cell-based or functional assay
T1 sequence (P32245 whole entry): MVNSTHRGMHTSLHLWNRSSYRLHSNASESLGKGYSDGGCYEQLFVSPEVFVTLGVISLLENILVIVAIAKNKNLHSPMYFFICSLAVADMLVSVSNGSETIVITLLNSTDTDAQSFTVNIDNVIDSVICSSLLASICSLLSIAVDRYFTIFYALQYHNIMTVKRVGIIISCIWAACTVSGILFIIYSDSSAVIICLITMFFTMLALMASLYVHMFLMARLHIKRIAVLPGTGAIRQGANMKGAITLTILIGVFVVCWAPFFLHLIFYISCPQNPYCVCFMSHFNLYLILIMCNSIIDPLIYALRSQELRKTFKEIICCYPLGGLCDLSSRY

[2] = molecular target: T1, human melanocortin-4 receptor; experiment: [I125]-NDP-α-MSH competition, hMC4-R HEK-293 membranes
Experimental: A competitive inhibition binding assay was performed for exemplified peptides according to the invention using membrane homogenates prepared from HEK-293 cells that express recombinant hMC4-R, hMC3-R, or hMC5-R, and from B-16 mouse melanoma cells (containing endogenous MC1-R). In some instances, HEK-293 cells that express recombinant hMC1-R were employed. Assays were performed in 96 well GF/B Millipore multiscreen filtration plates (MAFB NOB10) pre-coated with 0.5% bovine serum albumin (Fraction V). […] After incubation for 60 minutes at 37° C., the assay mixture was filtered and the membranes washed three times with ice-cold buffer. Filters were dried and counted in a gamma counter for bound radioactivity. […] Each assay was conducted in triplicate and the actual mean values are described, with results less than 0% reported as 0%. Ki values for test peptides of the present invention were determined using Graph-Pad Prism® curve-fitting software.

Binder: Ac-R[Orn]N[dPhe(4-F)]RWE-NH2 (lactam 2-7, also called No. 70) [Ac-Arg-cyclo(Orn-Asn-D-Phe(4-F)-Arg-Trp-Glu)-NH2]
EC50, cAMP, 0.1 ng/mL Doxycycline [1]: 400 pM
EC50, cAMP, 10 ng/mL Doxycycline [1]: 100 pM
Intrinsic Activity, cAMP, 0.1 ng/mL Doxycycline [1]: 64%
Ki [2]: 3000 pM

Binder: Ac-R[Orn]Q[dPhe(4-CN)]RWE-NH2 (lactam 2-7, also called No. 94) [Ac-Arg-cyclo(Orn-Gln-D-Phe(4-CN)-Arg-Trp-Glu)-NH2]
EC50, cAMP, 0.1 ng/mL Doxycycline [1]: 240 pM
EC50, cAMP, 10 ng/mL Doxycycline [1]: 90 pM
Intrinsic Activity, cAMP, 0.1 ng/mL Doxycycline [1]: 32%
Intrinsic Activity, cAMP, 10 ng/mL Doxycycline [1]: 92%
Ki [2]: 900 pM

Binder: RDPXRWK (N-terminal Ac; D-Phe(4-F) 4; lactam Asp 2-Lys 7; C-terminal NH2, also called No. 103) [Ac-Arg-cyclo(Asp-Pro-D-Phe(4-F)-Arg-Trp-Lys)-NH2]
EC50, cAMP, 0.1 ng/mL Doxycycline [1]: 1000 pM
EC50, cAMP, 10 ng/mL Doxycycline [1]: 130 pM
Intrinsic Activity, cAMP, 0.1 ng/mL Doxycycline [1]: 32%
Intrinsic Activity, cAMP, 10 ng/mL Doxycycline [1]: 100%
Ki [2]: 4000 pM

Binder: RDQXRWK (N-terminal Ac; D-Phe(4-CN) 4; lactam Asp 2-Lys 7; C-terminal NH2, also called No. 90) [Ac-Arg-cyclo(Asp-Gln-D-Phe(4-CN)-Arg-Trp-Lys)-NH2]
EC50, cAMP, 0.1 ng/mL Doxycycline [1]: 4000 pM
EC50, cAMP, 10 ng/mL Doxycycline [1]: 283 pM
Intrinsic Activity, cAMP, 0.1 ng/mL Doxycycline [1]: 31%
Intrinsic Activity, cAMP, 10 ng/mL Doxycycline [1]: 96%
Ki [2]: 5000 pM

Binder: Ac-R[Orn]N[dPhe(2-Cl)]RWE-NH2 (lactam 2-7) [Ac-Arg-cyclo(Orn-Asn-D-Phe(2-Cl)-Arg-Trp-Glu)-NH2]
EC50, cAMP, 0.1 ng/mL Doxycycline [1]: 720 pM
EC50, cAMP, 10 ng/mL Doxycycline [1]: 65 pM
Intrinsic Activity, cAMP, 10 ng/mL Doxycycline [1]: 100%
Ki [2]: 7000 pM

Binder: XDQXRWK (N-terminal Ac; D-Arg 1; D-Phe(3,4-diF) 4; lactam Asp 2-Lys 7; C-terminal NH2, also called No. 78) [Ac-D-Arg-cyclo(Asp-Gln-D-Phe(3,4-diF)-Arg-Trp-Lys)-NH2]
EC50, cAMP, 0.1 ng/mL Doxycycline [1]: 2000 pM
EC50, cAMP, 10 ng/mL Doxycycline [1]: 200 pM
Intrinsic Activity, cAMP, 0.1 ng/mL Doxycycline [1]: 48%
Intrinsic Activity, cAMP, 10 ng/mL Doxycycline [1]: 89%
Ki [2]: 8000 pM

Now from value to binder:

EC50, cAMP, 0.1 ng/mL Doxycycline [1]: 100 pM
EC50, cAMP, 10 ng/mL Doxycycline [1]: 40 pM
Intrinsic Activity, cAMP, 0.1 ng/mL Doxycycline [1]: 81%
Intrinsic Activity, cAMP, 10 ng/mL Doxycycline [1]: 89%
Ki [2]: 2000 pM
Binder: Ac-REQ[dPhe(4-F)]RW[Orn]-NH2 (lactam 2-7, also called No. 92) [Ac-Arg-cyclo(Glu-Gln-D-Phe(4-F)-Arg-Trp-Orn)-NH2]

EC50, cAMP, 0.1 ng/mL Doxycycline [1]: 4000 pM
EC50, cAMP, 10 ng/mL Doxycycline [1]: 450 pM
Intrinsic Activity, cAMP, 0.1 ng/mL Doxycycline [1]: 23%
Intrinsic Activity, cAMP, 10 ng/mL Doxycycline [1]: 85%
Ki [2]: 13000 pM
Binder: XDQXRWK (N-terminal Ac; D-Arg 1; D-Phe(4-CN) 4; lactam Asp 2-Lys 7; C-terminal NH2, also called No. 81) [Ac-D-Arg-cyclo(Asp-Gln-D-Phe(4-CN)-Arg-Trp-Lys)-NH2]

EC50, cAMP, 0.1 ng/mL Doxycycline [1]: 3000 pM
EC50, cAMP, 10 ng/mL Doxycycline [1]: 150 pM
Intrinsic Activity, cAMP, 0.1 ng/mL Doxycycline [1]: 35%
Intrinsic Activity, cAMP, 10 ng/mL Doxycycline [1]: 94%
Ki [2]: 7000 pM
B1: Ac-Arg-cyclo(Orn-Pro-D-Phe(2-F)-Arg-Trp-Glu)-NH2 (peptide)
peptide: Ac-R[Orn]P[dPhe(2-F)]RWE-NH2
modifications: lactam 2-7
SMILES: CC(=O)N[C@@H](CCCNC(=N)N)C(=O)N[C@H]1CCCNC(=O)CC[C@@H](C(N)=O)NC(=O)[C@H](Cc2c[nH]c3ccccc23)NC(=O)[C@H](CCCNC(=N)N)NC(=O)[C@@H](Cc2ccccc2F)NC(=O)[C@@H]2CCCN2C1=O

EC50, cAMP, 0.1 ng/mL Doxycycline [1]: 390 pM
EC50, cAMP, 10 ng/mL Doxycycline [1]: 70 pM
Intrinsic Activity, cAMP, 0.1 ng/mL Doxycycline [1]: 83%
Intrinsic Activity, cAMP, 10 ng/mL Doxycycline [1]: 101%
Ki [2]: 4000 pM
Binder: Ac-R[Orn]Q[dPhe(2-Cl)]RWE-NH2 (lactam 2-7) [Ac-Arg-cyclo(Orn-Gln-D-Phe(2-Cl)-Arg-Trp-Glu)-NH2]

EC50, cAMP, 0.1 ng/mL Doxycycline [1]: 3000 pM
EC50, cAMP, 10 ng/mL Doxycycline [1]: 350 pM
Intrinsic Activity, cAMP, 0.1 ng/mL Doxycycline [1]: 11%
Ki [2]: 4000 pM
Binder: Ac-R[Orn]N[dPhe(3-Me)]RWE-NH2 (lactam 2-7, also called No. 72) [Ac-Arg-cyclo(Orn-Asn-D-Phe(3-Me)-Arg-Trp-Glu)-NH2]

EC50, cAMP, 10 ng/mL Doxycycline [1]: 17000 pM
Intrinsic Activity, cAMP, 0.1 ng/mL Doxycycline [1]: 6%
Intrinsic Activity, cAMP, 10 ng/mL Doxycycline [1]: 87%
Ki [2]: 48000 pM
Binder: Ac-RDN[dPhe(4-CN)]RWK-NH2 (lactam 2-7, also called No. 89) [Ac-Arg-cyclo(Asp-Asn-D-Phe(4-CN)-Arg-Trp-Lys)-NH2]

EC50, cAMP, 0.1 ng/mL Doxycycline [1]: 600 pM
EC50, cAMP, 10 ng/mL Doxycycline [1]: 100 pM
Intrinsic Activity, cAMP, 0.1 ng/mL Doxycycline [1]: 90%
Intrinsic Activity, cAMP, 10 ng/mL Doxycycline [1]: 98%
Ki [2]: 7000 pM
Binder: Ac-REQ[dPhe(2-F)]RW[Orn]-NH2 (lactam 2-7, also called No. 59) [Ac-Arg-cyclo(Glu-Gln-D-Phe(2-F)-Arg-Trp-Orn)-NH2]

Reference: patent publication US20100311648A1 (AstraZeneca / MedImmune, published 2010)
